According to the domain aggregation screens of Martell et al. (2025):

Test: soluble fraction after stress (log2 fold change); higher = more stays soluble; pooled small domains, quantitative proteomics
Details: stress: 50 degC
In short: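 Pooled custom libraries of small protein domains were each held under stress at 50°C. The read-out, high-throughput quantitative proteomics, tracked how much of each protein stayed soluble. This is reported as a base-two log fold change used to indicate aggregation propensity. Higher values mean more protein remains in solution.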

Sequence	soluble fraction (log2)
HMPLNAHIVGRGKRDRRGKRGAPYSIVLELGRDENGKRIQKWYSGYPTKAAAEEDKIRMLRELQTGEYVPQ	-0.309
HMGIAKYRQVTEWIQNRIATGELNRGDQIESENDISRTFGISRQTVRHALGLLEQQGILTRIQGRGTFVRD	-0.661
HMEPVTETVYAMDTVNIRAAADQTSEKIGSVTVGTALTRTGTDGDWSIIDYNGTTGYVKSEFLSNTAPEV	-0.00262
HMEIEETKKNSRTKIPENFDYKLINGLSNEIRAKLELIRPIDLLQASRIDGMTPAALTLVHLWIKKYSG	-0.338
HMDPTIAAIRKKLKNWTIVEVHMTREELEQAVIDGKVDVFLSSAGFYRRLVRFGARDLATAMSPAYPD	-0.542
HMKVDRLVSMILILLEQQRVGAQELADRFEVSVRTIYRDMEAINQAGIPVRSTSGVGGGFEIM	-0.34
HMAMDSGELEAIVDRLISEHPDDWAALTAGDDRERKKKSGFFVGEVMKATRGQADGRAVIELLASRSA	0.00605
HMGDAVYSKVKDLVNTYNALAKQTGKSDLVSISQSRTWMVNDTKAHEVQWNKIGITIEDDQTLTI	0.179
HMTVPDVKGMGARDAVFLLETLGFKVRINGIGQVYEQSIDPGKSYSKGEFISLRL	-0.51
HMHRIKRRNDTLVSALDSIAGIGAKRKKALLQHFGSVRAIKAVSAEEIAKVEGISPTLANQIFEAL	-0.605
HMAASEAESIRILLSEGVDRVHLRKPQSAEADMRRLIEALPPELYPRLTLQDHLHLAGEYGT	0.0186
HMKDITAVISKKKGRDYYYIIVSYHLSNGKRVQKWIKTEFSVNGNNKRKLEQKRIEILQEWQNKLV	-0.642
HMATVNIGNLTFTHKGDYASGTTYAKNDVVYYSTNGNAYIAKQATQGNAPTSTAHWDVFAAGSGG	-0.161
HMAQISDESALYDLVKSVLDANPQSIADYKAGRDRALGFLMGQAMKLSKGKANPPVINKILKEMLDK	0.0791
HMGSGQVTLPDLEGKSMKEVARILSQLGLHLSPDGHGLAFKQSPAAGTRVPVGSTIKVSFQPL	0.0366
HMYTGSEGMAGLEGRAVTEVGPEAGTVLVKGEYWQARSDEPIATDRKIRVIRLEGLRLRVAEIHPEG	-0.0371
HMELEIPGELIEAVRRLRDERQRMRLAGELAARQIQMHPERYTEASIDPVQTWDELRARILALA	-0.248
HMQDENAVTYLLEIKNADANDIASVLKTLKSPDADVVVYKTLNMIIFTGQGSEINGLVKVARQLDRK	-0.417
HMDNWAALLSEREVQVSRLVANGASNKEIADHLAITERTVKAHLTAVFEKLGVRDRLQLSLRVNGL	-2.01
HMGQISDDGALKKLASEVLAANPQALADWKAGKQQAVSFLVGQAMKASKGRGDAALLGELIRAALD	0.0134
HMGEILYSGVLKGGDGPEATKLALEKFLGEANTQVAGRIGVQPETQVIWLSREAVDSAASTLSQHKGNMYV	-0.085
HMEFDTEFVLRQAMHAFMQYGYAKTSMQKLKEATHLHPGSIYAAYGNKKGLFLAATEQYQKDR	-0.0761
HMNFEIEVTENGKRIDSYLAEELDLSRSKVQKLIKQELVTVNGKVVSNNYNVKLGDTILVNDD	0.0352
HMLSAEAAAARTAISTLSEDQQRVLGLSIQRGLVHEQIARATGLPLGTVKTHIRRGLIKVREALEAQAAG	-0.00728
HMTAVNEHELMNQFKLSLGYANGDDPQTKLSTDEKNDFMRFKEWATAMTKDSKMGKDPDYLKKLAVQWTLK	0.214
HMNLNESVELGQELLSQALAQLGIRGELSPSTIDKLLAESSAKSMEELYADIGIGKRMPALVARHIFGLMD	-0.43

Sequence	soluble fraction (log2)
HMRKMELTEAAEKLIEEPDVVSAYRNMQQIFQQWREIGPVPREQRDEVWSHFKDLMTQVNRRHQAHFEN	-0.0451
HMDAVSTMIENLRVKTGKSLADWVGLAKGSGADKHGAMVGWLKSEHGLTHGYANLIAHETFRSAA	0.0392
HMRMQRYYLTDMSEKGREALPGVLDEMGYAGRYTMSDNSIAINSNMIVLSKAIKRAEDIAHNE	-0.086
HMDSINIDEETAKLGPNAPQIIDGIKKWGQGLVAKGVWSDEDFDEFKVFAATSSGINALNKIRKYY	0.0428
HMKITTKNYFKAIAEVGVENLPAALKKSHDLIEERTSKGADWSVYEHDAEVRRVFDLTFEKLFEFIDQ	-0.363
HMGKEDISQINKLYQNQILDYETYIDTLNSFNIDTKSKDFKNLLDLFIKKSISFETFNKGIINIHNKS	0.11
HMGTRHPLPYAYARANTVLLEDDGDRLVLWAPENVSLTALGEVLRRFDVDALERESSSTLANRIAVAYAG	-0.751
HMKNIRKQAIEAIDRIKNGNPIVISKNAKLIFKNIAKEANVSPTELHREFRDVMLYVNSLKAP	-0.255
HMKNEQIFIVRPDAEGTRLDQWLAAQMASSEEAPSRMQIQRWIKAGLVEGQGTLNPARRIEAGESYTVKPG	0.0493
HMDVQNLTKKNQEFINIVTHQLLQSGKSDEDIQTILAKTLPEIIEKQKQGIPARSFLGAPTAWAAQFI	0.133
HMGDAPLITVDKRTIKVNGAKAQIQVYDTTGRLVKNVSPAGKLTLIEMAKPGIFIVHTQSMSFKVVL	-0.448
HMSEHKFIVPEEFNLKRLDQTVAAQFEKISRTKISKIIKSSLLKVNDKVVTDQSIKIKQDDVITFTEIKDQ	0.0288
HMQEPNYQPLMQNIKSQDLEEVTRLLSLNDVKFKIDHRTGLLLVESSRVYEAKMKLAATGITD	-0.224
HMGAQKITIPDFSNQEATQVYAELKNMGLEYTESRMNHPSIASGYVIKTEPTKGSEVKAGTTVTVYVSLG	-0.0535
HMQTEFVISSGEQPKRLDVFLLQREPYLSRAALQRMIAAGWVRVNNHLAKSSQRIKAGDVIVFD	-1.41
HMNLSAREWTSADGSRTFQGELTGFQDGKVKVRRSDGKSLVFAIELLSESDQQFIKTNQLVIAKKDED	0.161
HMDNEYDKVYQAALSKLEGYPRSSITTAVIKDVVAQTIKYFEIKNFGYEDTIINQLQSAFTVKSSS	-0.0856
HMKEKQLMTLDDDLYAFLLKHPGIIQKDIYNHFPYDIKGVIADTLYAWDKTGKIKRTKSGNSYIIYT	-0.0536
HMLGARSLNEAVARNLPQILAKYQLIHIAGKNGFNPELQGRGYVQYEYVDTELKDLMALADIVVSR	-1.33
HMEEFLSFIADILEVDKNTLTLETSQDDVETWDSLMQLRLLGEIEAKYGVMIPMERISTIKKLNDFYQYIK	-0.513
HMFPTLNEDEQTIVSALQKINDQPINTLSIHTALPIPRLTSLLFQLEIKGVIKQLAGGTYHVL	-0.427
HMRRFEFSDGSSNKFWQITRDGTSLTVTFGKIGTAGQTQLKELATEAAAIAEHDKLVKEKTKKGYAEVG	-0.206
HMAPASADQLIDQLNEKVKAKDDKGVAALLTAAQTKMAELAQKDPKEAQAYVAKLQQWMQSNSENIKAALK	0.157
HMNEIDDYDIQLLEYLSKGVSQEAMESVFKQAGITPNSKSTIEKRISKLKIYFKALNTTHLVSITKDLGL	-0.642
HMPEDQISYTDLIKQINDGNVEKIKMTVGSTTIKVNLKEQEEPKTAIVPSTQAFIELVQEKVQDGNEITLI	0.119
HMFEQRLRQAMKELRLKQVQVAGLTGKSRGAISQYLSGDRVPPDGVQREMAIALGLEADYFSR	-0.408

Sequence	soluble fraction (log2)
HMSHKYKLTVPETGEGTRVDKFLSSALTELSRTRLKSLIEEGQVTLGGVKLTNPSHRVKSGDELNIEIPVP	0.146
HMSERVVEIDPSQLRPGLFIRLPSGWMNHPFLFNQFRINSAEQVEIIQKLGLKTVQYLPERSSTQALPRA	-0.499
HMSSKFKIVGEILSIKKSDILYIIEILSNNEVVKATAVEDEIKDLKIGDKILLSSKAFNPIVNK	-0.487
HMHSIFPVIRSTSFPTKSNDGELFITSDHTAETRIYYALDLGNTYRLIDQKVMNEINLTESLVKETARF	-1.9
HMADIWDLLRSEYKLTETDVRMLTDMLPDELMNDFRSEVLALRDRMNRYKVNNPKSYVVTSLKNFIIQHTP	-0.263
HMVMSTDAELILEYLAKHQGEMEITDKSSPELIMDTFNMSKGAFKRALGSLYKSKTVVIESTKVLLNT	-1.44
HMSYTYPVARLNHIKGKWYVLVSVPAHLRHLFPNQRDLRRSTGTDDESLAKRKQHALAQEIYDLFD	-0.468
HMEGMSIYVTVNGDMVHLTGKMSYVFVDVFEHIDFDLSKPQGSGIVTKLNGRDAQYMEEIRSGDMIEIYWR	-0.133
HMPSYYKELQNYSPENPVVKKRKVHPDVVNAIKYLAEITDGNPMLIKAYAQMILAHVFTTMPLIDKSV	-0.128
HMAPNKLQQQEVWTKALPLLQQMIMTIRQIDAAGGDSSPERELLEETAARFDETLDVERFLP	-0.308
HMNAAFMKAERLLAILNILLTGKRVSSTELAKKLEVSVRTVYRDVEALSEAGFPVYATMGRDGGFGLIEGF	-1.95
HMQAKQVAIPDVANYSVTDAIKKLQDAGFIVSDEQREEANETVSEGKVSRTSPAAGSIRKEGTEIILYKSL	0.198
HMGKSETALELIKRGHRLIADDAVEITRIGSTLSGTAPELIRNYLEVRGVGVIDVEKLFGVGAVQDSTQI	0.0401
HMDRMFQPETWSKIYQWVMNDPQVPDKEDVLALIRRHFGNFEKLIKLLHYLDGGKPYAYLSEH	-0.115
HMISINVIGEMISGSYGNTPFSRTYEKDIYEQMVKLSDDADQAQTVEEYNKILAEFSLLTTEDLK	-0.698
HMQEPVYRPVFPGMTDADRQSAMEALKEGGFSPRLNRQTGQLEVDASGYHEAKIYLASQGIPAE	0.124
HMAHETIDVAALRVGMFVQLDLGWLSHPFPLSSFRISSEDQIATIRALGLKRVRWSSEQSDS	-4.29
HMTVPNVVGQRILAAQDILKNLGLKVLVDTNLPNSQWGLRNVKSTNPGAGAVVRVGDTVTLIAR	0.0114
HMSDLLYAHPTEKGFQLVNVTQKVVMVILKTAAPNVYTVKGKNAIVFKEGNSWFYSENHNKKLLNIK	-1.13
HMTTTAGTAVVQTGNSGKLNLREQAYSNAGILGRYSNGTIVTVLQKGSAWSYVEVQGQKGYMMSKFLRFT	0.293
HMPFNLKSLADRLSHVFPGLVKMRDDIGAIIVMDKIKVTEHGVTEGGGLAADRVRAVYNEFIKEY	0.195
HMKVLFLESIEGSASMGEIKDVANGYARNFLFPNGFAVPATPKNLKNVEELQAKELEIQTERDNWAA	-0.0454
HMNRETAISIYRILHILEEPYKEVFTLRTLGDLSYREIADIFGKQENWARVTYHRAKLKIREALVS	-2
HMHREITGSLAERNGRYTAILNLYDEDGKRRQKSIALGIPVKGNKRKAQAQLEELKRAYSLGLPQ	-0.115
